In publication PMC2817712 one finds Kd data, which are given here for one substance.

The assay deals with CheY6 (wild type) with an engineered C-terminal biotinylation tag, for SPR surfaces (R. sphaeroides). Kind of assay: SPR; Biacore T100, 25°C; response regulator biotinylated in a C-terminal tag and held on streptavidin (200-1,500 RU); CheA3P1 injected at 120 nM to 2 mM; standard buffer (30 mM Hepes pH 7.5, 150 mM NaCl, 5 mM sodium acetate, 2 mM manganese chloride, 2 mM TCEP) with 0.05% Tween 20; equilibrium binding, 1:1 Langmuir model.
Chain of CheY6 (wild type) with an engineered C-terminal biotinylation tag, for SPR surfaces (R. sphaeroides) (Q8KLS1 entry or part of it, stated change not applied): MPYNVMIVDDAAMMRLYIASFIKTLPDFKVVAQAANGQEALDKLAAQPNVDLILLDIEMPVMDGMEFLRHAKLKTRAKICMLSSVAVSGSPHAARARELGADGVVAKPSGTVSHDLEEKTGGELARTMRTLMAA

“CheA3P1, the isolated P1 (Hpt, histidine-containing phosphotransfer) domain of CheA3 (residues 1-135), unphosphorylated (domain or fragment)”: the Kd was 218 µM.
